Results reported in PMC8885691 (2022).

Target: p53pΔF19
Assay: ITC

B1: p53-binding domain of human MdmX (N-MdmX, amino acids 22-110) (domain or fragment)
chain: GQINQVRPKLPLLKILHAAGAQGEMFTVKEVMHYLGQYIMVKQLYDQQEQHMVYCGGDLLGELLGRQSFSVKDPSPLYDMLRKNLVTLA
Q: For B1, which Kd is on record?
A: Its Kd is 20.1 µM.
